Measured values from paper PMC11812572 (2025).

B1: AF546- or AF647-labelled SNAP-tagged human NuMA N-terminal fragment (first 705 aa), NuMA^N-term (domain or fragment)
chain: MTLHATRGAALLSWVNSLHVADPVEAVLQLQDCSIFIKIIDRIHGTEEGQQILKQPVSERLDFVCSFLQKNRKHPSSPECLVSAQKVLEGSELELAKMTMLLLYHSTMSSKSPRDWEQFEYKIQAELAVILKFVLDHEDGLNLNEDLENFLQKAPVPSTCSSTFPEELSPPSHQAKREIRFLELQKVASSSSGNNFLSGSPASPMGDILQTPQFQMRRLKKQLADERSNRDELELELAENRKLLTEKDAQIAMMQQRIDRLALLNEKQAASPLEPKELEELRDKNESLTMRLHETLKQCQDLKTEKSQMDRKINQLSEENGDLSFKLREFASHLQQLQDALNELTEEHSKATQEWLEKQAQLEKELSAALQDKKCLEEKNEILQGKLSQLEEHLSQLQDNPPQEKGEVLGDVLQLETLKQEAATLAANNTQLQARVEMLETERGQQEAKLLAERGHFEEEKQQLSSLITDLQSSISNLSQAKEELEQASQAHGARLTAQVASLTSELTTLNATIQQQDQELAGLKQQAKEKQAQLAQTLQQQEQASQGLRHQVEQLSSSLKQKEQQLKEVAEKQEATRQDHAQQLATAAEEREASLRERDAALKQLEALEKEKAAKLEILQQQLQVANEARDSAQTSVTQAQREKAELSRKVEELQACVETARQEQHEAQAQVAELELQLRSEQQKATEKERVAQEKDQLQEQLQ
modifications: SNAP-tag labelled with SNAP-Surface Alexa Fluor 546 or SNAP-Surface Alexa Fluor 647
B2: Lis1 (protein)
chain: MVLSQRQRDELNRAIADYLRSNGYEEAYSVFKKEAELDVNEELDKKYAGLLEKKWTSVIRLQKKVMELESKLNEAKEEFTSGGPLGQKRDPKEWIPRPPEKYALSGHRSPVTRVIFHPVFSVMVSASEDATIKVWDYETGDFERTLKGHTDSVQDISFDHSGKLLASCSADMTIKLWDFQGFECIRTMHGHDHNVSSVAIMPNGDHIVSASRDKTIKMWEVQTGYCVKTFTGHREWVRMVRPNQDGTLIASCSNDQTVRVWVVATKECKAELREHEHVVECISWAPESSYSSISEATGSETKKSGKPGPFLLSGSRDKTIKMWDVSTGMCLMTLVGHDNWVRGVLFHSGGKFILSCADDKTLRVWDYKNKRCMKTLNAHEHFVTSLDFHKTAPYVVTGSVDQTVKVWECR
modifications: full-length human Lis1; N-terminal His6-TEV tag (unlabelled construct) or mCherry fusion left out; homodimer by general knowledge, copy number not printed in the text given

Legend:
[1] = target: T1, recombinant human cytoplasmic dynein 1 complex with mEGFP fused to its heavy chain, mEGFP-dynein (human, UniProt Q14204 1-4646; O43237-1 1-492; P63172 1-113; Q9NP97-1 1-96; P63167 1-89); assay: apparent, from TIRF dynein activation (run frequency); with 14 nM dynactin and 100 nM Lis1
[2] = target: T1, recombinant human cytoplasmic dynein 1 …; assay: apparent, from TIRF dynein activation (run frequency); with 14 nM dynactin and 200 nM NuMA^N-term

Binder	Kd [1]	Kd [2]
B1	51 nM	–
B2	–	148 nM
